Test results taken from paper PMC4835082.

Legend:
factor X = factor X (UniProt P00742)
factor Xa = factor Xa (UniProt P00742)

Sequence of daboxin P (C0HK16 whole entry): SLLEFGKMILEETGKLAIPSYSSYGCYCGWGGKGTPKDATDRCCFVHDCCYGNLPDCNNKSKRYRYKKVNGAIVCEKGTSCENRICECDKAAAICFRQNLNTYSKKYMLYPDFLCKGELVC

## alkylated daboxin P (enzyme)
Factor X
  residual activity of ETC treated with alkylated daboxin P (3 uM): 23%
  residual activity of ITC treated with alkylated daboxin P (3 uM): 19%

## daboxin P (enzyme)
Factor X
  IC50 of inhibition of FXa generation by the extrinsic tenase complex (ETC), in the presence of phospholipids, chromogenic substrate S-2222: 0.43 nM
  IC50 of inhibition of FXa generation by the intrinsic tenase complex (ITC), in the presence of phospholipids, chromogenic substrate S-2222: 39.2 nM
  residual activity of ETC (with phospholipids) upon treatment with 3 uM of daboxin P: 9.05%
  residual activity of ETC reconstituted without phospholipid, treated with daboxin P: 25%
  residual activity of ITC (with phospholipids) upon treatment with 3 uM of daboxin P: 2.8%
  residual activity of ITC reconstituted without phospholipid, treated with daboxin P: 20.1%
Factor Xa
  residual activity of the prothrombinase complex (thrombin formation, S-2238) when daboxin P was pre-incubated with FXa followed by addition of FVa: 11.3%
